Measured values published in the Human Domainome abundance scans (Beltran et al. 2025).
± gives the uncertainty stated by the source.

B1: Far upstream element-binding protein 1, residues 184 to 257; numbered along this chain, Q96AE4 (parent)
chain: GNAVQEIMIPASKAGLVIGKGGETIKQLQERAGVKMVMIQDGPQNTGADKPLRITGDPYKVQQAKEMVLELIRD

Variants of: B1
Experiment: abundance fitness (aPCA) (normalised: wild type 0, dead -1); higher = more abundant; growth selection in yeast, the domain comes from the species named
Settings: Homo sapiens
With E6V the abundance fitness was -0.028 ± 0.031.
E6I showed an abundance fitness of -0.101 ± 0.047.
Variant E6L has an abundance fitness of -0.187 ± 0.03.
E6P showed an abundance fitness of -0.809 ± 0.053.
With T55Q the abundance fitness was -0.022 ± 0.038.
Q27C showed an abundance fitness of -0.08 ± 0.042.
Work on Q27K yielded an abundance fitness of 0.032 ± 0.04.
Q27W gave an abundance fitness of -0.05 ± 0.035.
In the case of A11F, the abundance fitness is reported as -0.13 ± 0.046.
In the case of A11Y, the abundance fitness is reported as -0.089 ± 0.053.
Work on A11I yielded an abundance fitness of -0.096 ± 0.056.
For A11K, the abundance fitness was -0.011 ± 0.037.
With A11L the abundance fitness was -0.092 ± 0.03.
In the case of A11Q, the abundance fitness is reported as -0.078 ± 0.04.
Variant A11M has an abundance fitness of -0.094 ± 0.036.
For E70Y, the abundance fitness was -0.196 ± 0.044.
E70P gave an abundance fitness of -0.308 ± 0.04.
With Q63T the abundance fitness was -0.039 ± 0.033.
Work on Q63R yielded an abundance fitness of -0.026 ± 0.026.
Variant Q63I has an abundance fitness of -0.025 ± 0.05.
Work on Q63G yielded an abundance fitness of -0.058 ± 0.027.
Variant Q63A has an abundance fitness of -0.022 ± 0.03.
Variant Q63S has an abundance fitness of -0.061 ± 0.03.
In the case of V4Y, the abundance fitness is reported as -0.013 ± 0.05.
V4W gave an abundance fitness of -0.105 ± 0.034.
In the case of V4G, the abundance fitness is reported as -0.146 ± 0.026.
Work on V4A yielded an abundance fitness of -0.259 ± 0.033.
Variant V4P has an abundance fitness of -0.56 ± 0.048.
For V4L, the abundance fitness was -0.065 ± 0.03.
Variant K26E has an abundance fitness of -0.093 ± 0.035.
Variant K26D has an abundance fitness of -0.111 ± 0.044.
Variant K26M has an abundance fitness of -0.122 ± 0.044.
K26C gave an abundance fitness of -0.179 ± 0.043.
Variant P43H has an abundance fitness of 0.003 ± 0.063.
For P43A, the abundance fitness was 0.023 ± 0.039.
For P43N, the abundance fitness was -0.123 ± 0.063.
In the case of P43G, the abundance fitness is reported as 0.05 ± 0.03.
For P43T, the abundance fitness was -0.119 ± 0.044.
D74H showed an abundance fitness of -0.167 ± 0.051.
Work on D74K yielded an abundance fitness of -0.175 ± 0.07.
In the case of D74R, the abundance fitness is reported as -0.089 ± 0.039.
G42Y showed an abundance fitness of 0.055 ± 0.061.
In the case of G42A, the abundance fitness is reported as -0.028 ± 0.032.
A48P showed an abundance fitness of -0.042 ± 0.037.
In the case of A48M, the abundance fitness is reported as 0.02 ± 0.041.
Variant A48V has an abundance fitness of -0.015 ± 0.032.
With A48C the abundance fitness was 0.053 ± 0.046.
For A48K, the abundance fitness was 0.003 ± 0.038.
Variant K50C has an abundance fitness of -0.057 ± 0.04.
K50S showed an abundance fitness of -0.068 ± 0.032.
K50H showed an abundance fitness of -0.04 ± 0.049.
Variant K50T has an abundance fitness of -0.019 ± 0.034.
In the case of K50M, the abundance fitness is reported as -0.035 ± 0.04.
Work on L16Q yielded an abundance fitness of -0.093 ± 0.036.
L16M gave an abundance fitness of -0.018 ± 0.038.
For K35V, the abundance fitness was -0.124 ± 0.03.
In the case of K35M, the abundance fitness is reported as -0.154 ± 0.039.
With K35C the abundance fitness was -0.11 ± 0.043.
Variant K35Y has an abundance fitness of -0.248 ± 0.055.
Variant K35G has an abundance fitness of -0.071 ± 0.027.
In the case of Q44F, the abundance fitness is reported as -0.082 ± 0.053.
For Q44N, the abundance fitness was 0.02 ± 0.048.
In the case of Q44W, the abundance fitness is reported as -0.088 ± 0.035.
Q44S gave an abundance fitness of -0.04 ± 0.032.
Q44C showed an abundance fitness of -0.083 ± 0.043.
Work on Q44I yielded an abundance fitness of -0.046 ± 0.056.
Work on Q44R yielded an abundance fitness of -0.048 ± 0.028.
With Q44E the abundance fitness was -0.06 ± 0.034.
P58H gave an abundance fitness of -0.003 ± 0.068.
P58M gave an abundance fitness of -0.014 ± 0.04.
P58L gave an abundance fitness of -0.068 ± 0.03.
Work on G19K yielded an abundance fitness of -0.445 ± 0.043.
G19H showed an abundance fitness of -0.376 ± 0.061.
In the case of G19L, the abundance fitness is reported as -0.598 ± 0.039.
With G19P the abundance fitness was -0.629 ± 0.047.
Variant G19D has an abundance fitness of -0.204 ± 0.046.
Work on R73V yielded an abundance fitness of -0.038 ± 0.036.
Variant R73M has an abundance fitness of 0.001 ± 0.039.
R73T showed an abundance fitness of 0.043 ± 0.037.
With R73I the abundance fitness was -0.15 ± 0.058.
Work on R73C yielded an abundance fitness of -0.002 ± 0.043.
For G33V, the abundance fitness was -0.596 ± 0.035.
G33H gave an abundance fitness of -0.1 ± 0.058.
For G33C, the abundance fitness was -0.125 ± 0.042.
G33F gave an abundance fitness of -0.43 ± 0.052.
With G33D the abundance fitness was -0.083 ± 0.044.
T24N gave an abundance fitness of -0.075 ± 0.058.
T24M gave an abundance fitness of 0.002 ± 0.048.
Work on T24L yielded an abundance fitness of -0.099 ± 0.031.
In the case of T24V, the abundance fitness is reported as -0.029 ± 0.033.
Work on T24I yielded an abundance fitness of -0.11 ± 0.045.
Work on K20E yielded an abundance fitness of -0.01 ± 0.036.
K20G gave an abundance fitness of -0.105 ± 0.031.
For K20S, the abundance fitness was -0.042 ± 0.031.
M67F gave an abundance fitness of -0.117 ± 0.045.
M67G gave an abundance fitness of -0.177 ± 0.028.
Work on D49S yielded an abundance fitness of -0.077 ± 0.032.
Work on D49K yielded an abundance fitness of -0.087 ± 0.036.
D49T gave an abundance fitness of -0.045 ± 0.035.
Variant D49V has an abundance fitness of -0.068 ± 0.03.
In the case of D49R, the abundance fitness is reported as -0.129 ± 0.028.
D49F showed an abundance fitness of -0.081 ± 0.053.
Work on D49I yielded an abundance fitness of -0.148 ± 0.046.
I7P gave an abundance fitness of -1.14 ± 0.079.
I7W showed an abundance fitness of -0.651 ± 0.04.
For I7Y, the abundance fitness was -0.597 ± 0.058.
I7G gave an abundance fitness of -0.885 ± 0.035.
E30V showed an abundance fitness of -0.029 ± 0.031.
E30A gave an abundance fitness of -0.039 ± 0.035.
Q5P gave an abundance fitness of -0.726 ± 0.045.
Work on Q5A yielded an abundance fitness of -0.007 ± 0.03.
Q5C showed an abundance fitness of -0.006 ± 0.045.
Variant Q5D has an abundance fitness of 0.021 ± 0.041.
Work on Q5K yielded an abundance fitness of 0.016 ± 0.036.
In the case of Q5M, the abundance fitness is reported as 0.056 ± 0.035.
Q5T showed an abundance fitness of 0.013 ± 0.031.
Work on Q5H yielded an abundance fitness of -0.108 ± 0.058.
In the case of M8W, the abundance fitness is reported as -0.164 ± 0.034.
In the case of M8P, the abundance fitness is reported as -0.094 ± 0.036.
In the case of M8Y, the abundance fitness is reported as -0.133 ± 0.049.
With M8Q the abundance fitness was -0.03 ± 0.04.
Variant M8V has an abundance fitness of -0.323 ± 0.032.
G15I showed an abundance fitness of -0.028 ± 0.05.
Variant G15C has an abundance fitness of 0.127 ± 0.041.
G15N gave an abundance fitness of 0.011 ± 0.053.
In the case of L28C, the abundance fitness is reported as -0.399 ± 0.051.
For L28F, the abundance fitness was -0.225 ± 0.062.
L28V gave an abundance fitness of -0.155 ± 0.032.
Work on L28E yielded an abundance fitness of -0.63 ± 0.046.
Variant A64G has an abundance fitness of -0.051 ± 0.027.
For A64S, the abundance fitness was -0.228 ± 0.031.
A64K gave an abundance fitness of -0.758 ± 0.053.
Variant A64P has an abundance fitness of -0.784 ± 0.048.
A64H gave an abundance fitness of -0.967 ± 0.086.
In the case of P51W, the abundance fitness is reported as -0.066 ± 0.037.
In the case of P51F, the abundance fitness is reported as -0.077 ± 0.042.
With M38I the abundance fitness was -0.036 ± 0.048.
M38R showed an abundance fitness of -0.444 ± 0.029.
Variant M38E has an abundance fitness of -0.163 ± 0.039.
M38P showed an abundance fitness of -0.287 ± 0.04.
Variant M38F has an abundance fitness of 0.037 ± 0.052.
With Y59N the abundance fitness was 0.047 ± 0.047.
With Y59H the abundance fitness was 0.044 ± 0.044.
Variant Y59V has an abundance fitness of -0.024 ± 0.029.
Variant L52T has an abundance fitness of -0.878 ± 0.053.
L52E showed an abundance fitness of -0.956 ± 0.056.
Variant L52A has an abundance fitness of -0.807 ± 0.041.
For L52C, the abundance fitness was -0.229 ± 0.047.
L52S showed an abundance fitness of -0.918 ± 0.047.
P10F gave an abundance fitness of -1.13 ± 0.13.
With P10W the abundance fitness was -1.22 ± 0.082.
Variant P10R has an abundance fitness of -0.513 ± 0.03.
Work on P10N yielded an abundance fitness of -0.299 ± 0.054.
In the case of P10G, the abundance fitness is reported as -0.557 ± 0.031.
With P10V the abundance fitness was -0.946 ± 0.047.
P10C showed an abundance fitness of -0.598 ± 0.053.
Variant N45I has an abundance fitness of -0.029 ± 0.046.
N45D gave an abundance fitness of 0.013 ± 0.038.
N45K gave an abundance fitness of -0.008 ± 0.031.
In the case of R53E, the abundance fitness is reported as -0.116 ± 0.036.
R53I gave an abundance fitness of -0.049 ± 0.057.
R53P showed an abundance fitness of -0.941 ± 0.062.
For I54T, the abundance fitness was -0.723 ± 0.06.
I54L showed an abundance fitness of -0.069 ± 0.034.
For I54K, the abundance fitness was -0.878 ± 0.067.
I54A gave an abundance fitness of -0.807 ± 0.053.
Variant I54P has an abundance fitness of -1.08 ± 0.093.
